Biological target: Flag-tagged full-length mouse sphingosine 1-phosphate receptor-1 (S1P1) (mouse, UniProt O08530 1-382)
Assay: co-IP

Flag-tagged full-length mouse sphingosine 1-phosphate receptor-1 (S1P1), sequence (O08530 whole entry): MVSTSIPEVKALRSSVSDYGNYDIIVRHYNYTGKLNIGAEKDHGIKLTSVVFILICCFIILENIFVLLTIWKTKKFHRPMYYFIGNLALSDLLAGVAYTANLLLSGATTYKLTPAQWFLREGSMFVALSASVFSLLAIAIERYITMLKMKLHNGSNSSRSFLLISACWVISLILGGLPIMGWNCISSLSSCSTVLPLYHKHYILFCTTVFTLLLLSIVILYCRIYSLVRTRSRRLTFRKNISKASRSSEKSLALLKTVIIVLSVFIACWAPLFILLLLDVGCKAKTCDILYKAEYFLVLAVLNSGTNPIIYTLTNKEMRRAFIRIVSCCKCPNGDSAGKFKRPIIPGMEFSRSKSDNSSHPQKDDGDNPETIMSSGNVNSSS

B1: HA-tagged mouse CD69 (natural protein, UniProt P37217 1-199, looked up)
chain: MDSENCSITENSSSHLERGQKDHGTSIHFEKHHEGSIQVSIPWAVLIVVLITSLIIALIALNVGKYNCPGLYEKLESSDHHVATCKNEWISYKRTCYFFSTTTKSWALAQRSCSEDAATLAVIDSEKDMTFLKRYSGELEHWIGLKNEANQTWKWANGKEFNSWFNLTGSGRCVSVNHKNVTAVDCEANFHWVCSKPSR
fold interaction compared with the control proteins NKRp1A and S1P3: 10 fold

Source: publication PMC2903414 (The Journal of Biological Chemistry, 2010)
